Assay results published in US20220332804A1 (CSL INNOVATION, published 2022).

Tests used:
Experiment in all cases: SPR, KD relative to WT C2;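 note: biacore SPR at 37 °C, anti-C2 mAbs captured via immobilised goat anti-human IgG, C2 alanine or serine surface mutants as analytes, 1:1 model fitted, double-referenced sensograms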
[1] = biological target: T1, human C2 K711A (human, UniProt P06681 21-752)
T1 sequence: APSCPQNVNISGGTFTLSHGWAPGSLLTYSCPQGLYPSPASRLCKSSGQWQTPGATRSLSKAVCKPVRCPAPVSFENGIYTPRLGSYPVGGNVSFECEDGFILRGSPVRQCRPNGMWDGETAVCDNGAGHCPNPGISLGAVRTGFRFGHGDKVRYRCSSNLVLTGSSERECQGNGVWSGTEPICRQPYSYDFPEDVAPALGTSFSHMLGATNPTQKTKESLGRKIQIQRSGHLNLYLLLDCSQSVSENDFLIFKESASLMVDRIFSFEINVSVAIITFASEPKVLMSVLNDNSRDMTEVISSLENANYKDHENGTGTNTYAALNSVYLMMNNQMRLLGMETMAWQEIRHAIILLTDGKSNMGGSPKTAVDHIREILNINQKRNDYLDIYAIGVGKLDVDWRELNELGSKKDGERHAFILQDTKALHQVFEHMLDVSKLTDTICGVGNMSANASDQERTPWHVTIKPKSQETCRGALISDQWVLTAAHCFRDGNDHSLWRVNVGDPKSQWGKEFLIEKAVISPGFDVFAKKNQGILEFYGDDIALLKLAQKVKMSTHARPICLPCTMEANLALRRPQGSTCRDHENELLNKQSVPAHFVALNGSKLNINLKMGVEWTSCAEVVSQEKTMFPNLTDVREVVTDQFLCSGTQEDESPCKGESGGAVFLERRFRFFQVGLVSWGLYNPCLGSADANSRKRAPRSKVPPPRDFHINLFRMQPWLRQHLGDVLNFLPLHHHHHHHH

[2] = biological target: T2, human C2 A717S (human, UniProt P06681 21-752)
T2 sequence: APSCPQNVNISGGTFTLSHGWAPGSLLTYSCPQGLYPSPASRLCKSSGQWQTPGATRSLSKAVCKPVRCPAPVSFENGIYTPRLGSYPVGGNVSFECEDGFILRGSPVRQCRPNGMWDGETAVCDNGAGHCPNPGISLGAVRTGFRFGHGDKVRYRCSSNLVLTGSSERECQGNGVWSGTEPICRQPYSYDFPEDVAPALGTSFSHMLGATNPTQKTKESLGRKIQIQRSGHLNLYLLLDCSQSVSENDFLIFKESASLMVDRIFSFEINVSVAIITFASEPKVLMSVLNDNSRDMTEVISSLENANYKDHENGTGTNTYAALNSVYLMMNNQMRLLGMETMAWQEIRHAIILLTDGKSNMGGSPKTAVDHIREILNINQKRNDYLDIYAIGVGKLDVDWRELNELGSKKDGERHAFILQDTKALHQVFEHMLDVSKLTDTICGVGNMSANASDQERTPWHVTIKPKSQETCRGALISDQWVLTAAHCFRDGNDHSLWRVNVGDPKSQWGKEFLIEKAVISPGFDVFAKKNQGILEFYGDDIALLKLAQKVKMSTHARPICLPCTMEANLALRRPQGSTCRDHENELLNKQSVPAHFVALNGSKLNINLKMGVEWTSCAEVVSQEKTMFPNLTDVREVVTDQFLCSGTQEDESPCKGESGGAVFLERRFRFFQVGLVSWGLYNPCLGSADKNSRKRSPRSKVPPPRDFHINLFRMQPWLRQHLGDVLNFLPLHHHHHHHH

[3] = biological target: T3, human C2 F437A (human, UniProt P06681 21-752)
T3 sequence: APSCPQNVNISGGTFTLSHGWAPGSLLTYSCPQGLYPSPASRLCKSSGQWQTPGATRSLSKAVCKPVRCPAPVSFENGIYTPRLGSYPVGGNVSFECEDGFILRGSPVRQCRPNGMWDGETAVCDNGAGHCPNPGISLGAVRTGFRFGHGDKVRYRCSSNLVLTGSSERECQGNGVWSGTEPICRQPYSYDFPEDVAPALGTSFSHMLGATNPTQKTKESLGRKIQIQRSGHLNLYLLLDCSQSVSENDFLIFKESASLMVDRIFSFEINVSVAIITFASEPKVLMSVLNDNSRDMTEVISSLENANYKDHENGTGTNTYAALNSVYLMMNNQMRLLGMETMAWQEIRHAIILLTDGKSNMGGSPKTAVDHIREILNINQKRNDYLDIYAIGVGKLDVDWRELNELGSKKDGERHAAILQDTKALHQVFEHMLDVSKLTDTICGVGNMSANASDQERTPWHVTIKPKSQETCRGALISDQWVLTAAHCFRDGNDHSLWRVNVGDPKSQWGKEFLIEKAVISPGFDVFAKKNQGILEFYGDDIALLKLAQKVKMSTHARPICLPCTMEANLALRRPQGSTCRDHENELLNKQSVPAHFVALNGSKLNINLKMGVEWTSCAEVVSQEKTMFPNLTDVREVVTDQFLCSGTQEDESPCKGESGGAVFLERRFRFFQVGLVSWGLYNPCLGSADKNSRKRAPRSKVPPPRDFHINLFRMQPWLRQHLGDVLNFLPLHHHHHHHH

[4] = biological target: T4, human C2 I272A (human, UniProt P06681 21-752)
T4 sequence: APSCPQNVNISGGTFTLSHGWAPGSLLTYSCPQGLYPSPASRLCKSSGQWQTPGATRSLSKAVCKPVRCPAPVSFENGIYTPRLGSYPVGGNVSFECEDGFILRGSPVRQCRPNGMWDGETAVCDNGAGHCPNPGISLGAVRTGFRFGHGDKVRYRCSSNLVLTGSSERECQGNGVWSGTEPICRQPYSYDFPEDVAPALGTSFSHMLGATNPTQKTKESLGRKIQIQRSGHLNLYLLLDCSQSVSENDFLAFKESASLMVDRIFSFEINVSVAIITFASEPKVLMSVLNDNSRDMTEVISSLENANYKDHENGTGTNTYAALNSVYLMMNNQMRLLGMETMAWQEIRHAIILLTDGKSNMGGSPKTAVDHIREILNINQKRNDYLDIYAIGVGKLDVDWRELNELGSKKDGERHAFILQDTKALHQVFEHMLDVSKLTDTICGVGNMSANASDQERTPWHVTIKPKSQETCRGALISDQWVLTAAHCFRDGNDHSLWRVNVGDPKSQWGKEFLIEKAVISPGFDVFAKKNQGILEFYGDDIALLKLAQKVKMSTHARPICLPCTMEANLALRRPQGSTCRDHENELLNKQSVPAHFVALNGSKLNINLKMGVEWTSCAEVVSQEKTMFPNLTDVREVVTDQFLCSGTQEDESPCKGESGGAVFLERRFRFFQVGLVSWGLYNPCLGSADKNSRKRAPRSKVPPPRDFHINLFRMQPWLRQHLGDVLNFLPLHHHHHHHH

B1: RF16-226 (antibody, human IgG4 S228P, lambda)
heavy: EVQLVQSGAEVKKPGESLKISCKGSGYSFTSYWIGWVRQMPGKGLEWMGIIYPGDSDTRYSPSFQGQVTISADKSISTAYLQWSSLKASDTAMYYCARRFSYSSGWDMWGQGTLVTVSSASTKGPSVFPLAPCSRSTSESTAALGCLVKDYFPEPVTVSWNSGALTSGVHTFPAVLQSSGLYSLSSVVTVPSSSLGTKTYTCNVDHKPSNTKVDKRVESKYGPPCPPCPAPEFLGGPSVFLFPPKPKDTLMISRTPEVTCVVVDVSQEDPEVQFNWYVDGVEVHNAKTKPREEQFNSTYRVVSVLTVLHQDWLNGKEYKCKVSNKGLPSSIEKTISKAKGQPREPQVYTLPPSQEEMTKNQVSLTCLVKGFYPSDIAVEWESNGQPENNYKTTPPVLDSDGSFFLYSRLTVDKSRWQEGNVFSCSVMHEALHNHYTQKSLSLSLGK
light: SYELTQPPSVSVSPGQTARITCSGDALTSKYVAWYQQKSGLAPLLVIYEDTRRPSGIPAKFSGSSSGSVATLTISGAHGDDEADYYCYSTDASGHQRVFGGGTKLTVLSQPKAAPSVTLFPPSSEELQANKATLVCLISDFYPGAVTVAWKADGSPVKAGVETTKPSKQSNNKYAASSYLSLTPEQWKSHRSYSCQVTHEGSTVEKTVAPTECS
notes: pH-dependent anti-C2 antibody from a phage display library; also called WT
Fold diff [1]: 5 fold | Fold diff [2]: 41 fold | Fold diff [3]: 26 fold | Fold diff [4]: 1 fold
